Assay results reported in IntAct's records for PubMed 40624043.

B1: NTF2-related export protein 2 (Homo sapiens), Q9NPJ8-3 (parent)
chain: MRKYRSHWSQGDREGYQRRSNYYEGPHTSHSSPADRTREEVVTPTLPEHTATRSQMATSLDFKTYVDQACRAAEEFVNIYYETMDKRRRALTRLYLDKATLIWNGNAVSGLDALNNFFDTLPSSEFQVNMLDCQPVHEQATQSQTTVLVVTSGTVKFDGNKQHFFNQNFLLTAQSTPNNTVWKIASDCFRFQDWSSS
partner: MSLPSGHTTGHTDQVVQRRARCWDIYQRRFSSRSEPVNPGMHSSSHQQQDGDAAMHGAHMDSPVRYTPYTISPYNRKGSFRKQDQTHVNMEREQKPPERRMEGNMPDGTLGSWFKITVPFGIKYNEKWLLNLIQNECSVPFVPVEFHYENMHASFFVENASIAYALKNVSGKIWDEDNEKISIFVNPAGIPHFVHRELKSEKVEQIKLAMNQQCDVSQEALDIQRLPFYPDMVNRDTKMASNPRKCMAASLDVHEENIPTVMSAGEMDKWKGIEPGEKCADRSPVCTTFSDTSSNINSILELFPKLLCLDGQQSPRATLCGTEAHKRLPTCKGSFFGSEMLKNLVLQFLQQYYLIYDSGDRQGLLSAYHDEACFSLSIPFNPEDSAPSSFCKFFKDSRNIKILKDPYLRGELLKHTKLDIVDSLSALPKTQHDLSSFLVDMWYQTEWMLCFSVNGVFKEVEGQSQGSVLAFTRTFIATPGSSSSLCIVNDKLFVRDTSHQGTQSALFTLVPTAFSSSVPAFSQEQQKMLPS
B2: NTF2-related export protein 2 (Homo sapiens), Q9NPJ8-3 (parent)
chain: B1 chain
partner: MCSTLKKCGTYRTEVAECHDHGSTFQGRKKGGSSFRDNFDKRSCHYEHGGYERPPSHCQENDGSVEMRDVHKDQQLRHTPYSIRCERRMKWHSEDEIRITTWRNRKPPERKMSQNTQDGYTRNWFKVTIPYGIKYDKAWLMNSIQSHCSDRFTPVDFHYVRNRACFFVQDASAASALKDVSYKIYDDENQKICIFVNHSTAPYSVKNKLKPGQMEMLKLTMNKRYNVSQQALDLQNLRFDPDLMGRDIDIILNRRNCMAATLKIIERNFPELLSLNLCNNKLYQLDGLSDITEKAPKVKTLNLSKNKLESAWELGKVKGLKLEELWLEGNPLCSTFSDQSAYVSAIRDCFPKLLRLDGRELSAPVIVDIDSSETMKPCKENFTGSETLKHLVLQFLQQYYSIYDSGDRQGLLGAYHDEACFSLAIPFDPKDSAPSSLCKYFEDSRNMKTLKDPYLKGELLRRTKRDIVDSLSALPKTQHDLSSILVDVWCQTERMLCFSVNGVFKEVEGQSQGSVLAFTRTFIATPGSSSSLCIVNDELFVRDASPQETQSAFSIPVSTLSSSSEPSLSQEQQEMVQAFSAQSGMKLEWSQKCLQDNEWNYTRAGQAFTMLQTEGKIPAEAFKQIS

Variants of: B1
Conditions: with NXF3, Q9H4D5-1

effect of a mutation on the interaction | Variant
with no effect | MRKYRSHWSQGDREGYQRRSNYYEGPHTSHSSPADRTREEVVTPTLPEHTATRSQMATSLDFKTYVDQACRAAEEFVNIYYETMDKRRRSLTRLYLDKATLIWNGNAVSGLDALNNFFDTLPSSEFQVNMLDCQPVHEQATQSQTTVLVVTSGTVKFDGNKQHFFNQNFLLTAQSTPNNTVWKIASDCFRFQDWSSS [A90S]

Variants of: B2
Conditions: with nxf2_human NXF2B

effect of a mutation on the interaction | Variant
with no effect | MRKYRSHWSQGDREGYQRRSNYYEGPHTSHSSPADRTREEVVTPTLPEHTATRSQMATSLDFKTYVDQACRAAEEFVNIYYETMDKRRRSLTRLYLDKATLIWNGNAVSGLDALNNFFDTLPSSEFQVNMLDCQPVHEQATQSQTTVLVVTSGTVKFDGNKQHFFNQNFLLTAQSTPNNTVWKIASDCFRFQDWSSS [A90S]
